In US20240034813A1 (Janssen / Centocor, published 2024):

Assays:
[1] = molecular target: T1, recombinant cMet/HGFR with c-terminal His-tag, Cy5-labeled (UniProt P08581 25-932, limits assumed, Cy5 label (reacted with Cy5 Mono NHS Ester; sites not stated)); assay: competitive TR-FRET (Eu-amivantamab/Cy5-c-MET), EC50 ratio vs Reference Material; Ex. 11 drug product, 1 month at 40 C
T1 construct: Commercial protein; also called Cy5-c-MET; Cy5-labeled c-MET antigen; not shown: C-terminal His-tag
Source text: (§1) In this procedure, varying concentrations of unlabeled bispecific EGFR-cMet antibody sample compete with donor fluorophore (Europium (Eu) chelate) labeled bispecific EGFR-cMet antibody for binding to an acceptor fluorophore (Cy5)-labeled c-MET antigen. Excitation of the donor fluorophore results in a transfer of energy to the bound acceptor fluorophore (FRET process). The resultant FRET is detected by emission of light at 665 nm using a microplate reader capable of measuring time-resolved fluorescence. Sample dose response curves are compared to the Reference Material (RM).
(§2) c-MET Binding Materials and Methods. Certified commercial cMet, a recombinant cMet/HGFR with c-terminal His-tag is reacted with certified commercial Cy5 Mono NHS Ester to produce Cy5-labeled c-MET. Validated bispecific EGFR-cMet antibody is reacted with certified commercial Europium (Eu) chelate to produce Eu labeled bispecific EGFR-cMet antibody. […] Fluorescence is then measured by spectrophotometry at 665 nm, plotted against antibody concentration and analyzed by a four-parameter logistic model. The antibody concentration required to obtain half of the maximum fluorescence response (EC50) is determined for RM, assay control and samples. The potencies of assay control and samples are calculated based on the ratio of the sample (or control) and RM EC50 values and reported as a percentage activity relative to the RM.

[2] = molecular target: T1, recombinant cMet/HGFR with c-terminal …; assay: competitive TR-FRET (Eu-amivantamab/Cy5-c-MET), EC50 ratio vs Reference Material; Ex. 11 drug product, 12 months at 5 C
Source text: as §1, §2

[3] = molecular target: T1, recombinant cMet/HGFR with c-terminal …; assay: competitive TR-FRET (Eu-amivantamab/Cy5-c-MET), EC50 ratio vs Reference Material; Ex. 11 drug product, 6 months at 25 C
Source text: as §1, §2

[4] = molecular target: T2, recombinant human EGFR/ErbB1/HER1 with C-terminal His tag, Cy5-labeled (human, UniProt P00533 25-645, Cy5 label (reacted with Cy5 Mono NHS Ester; sites not stated)); assay: competitive TR-FRET (Eu-amivantamab/Cy5-EGFR), EC50 ratio vs Reference Material; Ex. 11 drug product, 0 months, 25 C table
T2 construct: Commercial protein; also called Cy5-EGFR; Cy5-labeled EGFR antigen; not shown: C-terminal His tag
Source text: as §1, with “EGFR” for “c-MET”, “RM.” for “Reference Material (RM).”
as §2, with “EGFR” for “c-MET”, “EGFR,” for “cMet,”, “human EGFR/ErbB1/HER1” for “cMet/HGFR”, “C-terminal His tag” for “c-terminal His-tag”, “EGFR.” for “c-MET.”, “Eu-labeled” for “Eu labeled”

[5] = molecular target: T2, recombinant human EGFR/ErbB1/HER1 with …; assay: competitive TR-FRET (Eu-amivantamab/Cy5-EGFR), EC50 ratio vs Reference Material; Ex. 2 Formulation 3 (acetate), T0, 5 C table
Source text: as §1, with “EGFR” for “c-MET”, “RM.” for “Reference Material (RM).”
as §2, with “EGFR” for “c-MET”, “EGFR,” for “cMet,”, “human EGFR/ErbB1/HER1” for “cMet/HGFR”, “C-terminal His tag” for “c-terminal His-tag”, “EGFR.” for “c-MET.”, “Eu-labeled” for “Eu labeled”

[6] = molecular target: T2, recombinant human EGFR/ErbB1/HER1 with …; assay: competitive TR-FRET (Eu-amivantamab/Cy5-EGFR), EC50 ratio vs Reference Material; Ex. 12 drug product with rHuPH20, 6 months at 25 C
Source text: as §1, with “EGFR” for “c-MET”, “RM.” for “Reference Material (RM).”
as §2, with “EGFR” for “c-MET”, “EGFR,” for “cMet,”, “human EGFR/ErbB1/HER1” for “cMet/HGFR”, “C-terminal His tag” for “c-terminal His-tag”, “EGFR.” for “c-MET.”, “Eu-labeled” for “Eu labeled”

[7] = molecular target: T2, recombinant human EGFR/ErbB1/HER1 with …; assay: competitive TR-FRET (Eu-amivantamab/Cy5-EGFR), EC50 ratio vs Reference Material; Ex. 2 Formulation 2 (50 mM histidine), T0, 5 C table
Source text: as §1, with “EGFR” for “c-MET”, “RM.” for “Reference Material (RM).”
as §2, with “EGFR” for “c-MET”, “EGFR,” for “cMet,”, “human EGFR/ErbB1/HER1” for “cMet/HGFR”, “C-terminal His tag” for “c-terminal His-tag”, “EGFR.” for “c-MET.”, “Eu-labeled” for “Eu labeled”

[8] = molecular target: T2, recombinant human EGFR/ErbB1/HER1 with …; assay: competitive TR-FRET (Eu-amivantamab/Cy5-EGFR), EC50 ratio vs Reference Material; Ex. 2 Formulation 2 (50 mM histidine), 1 month at 40 C
Source text: as §1, with “EGFR” for “c-MET”, “RM.” for “Reference Material (RM).”
as §2, with “EGFR” for “c-MET”, “EGFR,” for “cMet,”, “human EGFR/ErbB1/HER1” for “cMet/HGFR”, “C-terminal His tag” for “c-terminal His-tag”, “EGFR.” for “c-MET.”, “Eu-labeled” for “Eu labeled”

- cMET Binding activity relative to Reference Material (%) [1]: 84%
- cMET Binding activity relative to Reference Material (%) [2]: 98%
- cMET Binding activity relative to Reference Material (%) [3]: 113%
- EGFR Binding activity relative to Reference Material (%) [4]: 89%
- EGFR Binding % activity relative to RM [5]: 103%
- EGFR Binding activity relative to Reference Material (%) [6]: 54%
- EGFR Binding % activity relative to RM [7]: 103%
- EGFR Binding % activity relative to RM [8]: 68%
B1: amivantamab (bispecific antibody, human IgG1, kappa)
heavy 1: not shown
light 1: not shown
heavy 2: not shown
light 2: DIQMTQSPSSVSASVGDRVTITCRASQGISNWLAWFQHKPGKAPKLLIYAASSLLSGVPSRFSGSGSGTDFTLTISSLQPEDFATYYCQQANSFPITFGQGTRLEIKRTVAAPSVFIFPPSDEQLKSGTASVVCLLNNFYPREAKVQWKVDNALQSGNSQESVTEQDSKDSTYSLSSTLTLSKADYEKHKVYACEVTHQGLSSPVTKSFNRGEC
notes: The samples tested were high concentration (160 mg/mL) formulations, fresh or stored or stressed; also called JNJ-61186372; bispecific EGFR-cMet antibody
